The record followed here is patent publication US20190127444A1 (NEW YORK UNIVERSITY, published 2019).

The experiment addresses T1, LukAB toxoid variant (LukA E323A), recombinant polyhistidine-tagged (S. aureus, UniProt Q2FFA2 28-351; P21224 30-338).
T1 sequence 1: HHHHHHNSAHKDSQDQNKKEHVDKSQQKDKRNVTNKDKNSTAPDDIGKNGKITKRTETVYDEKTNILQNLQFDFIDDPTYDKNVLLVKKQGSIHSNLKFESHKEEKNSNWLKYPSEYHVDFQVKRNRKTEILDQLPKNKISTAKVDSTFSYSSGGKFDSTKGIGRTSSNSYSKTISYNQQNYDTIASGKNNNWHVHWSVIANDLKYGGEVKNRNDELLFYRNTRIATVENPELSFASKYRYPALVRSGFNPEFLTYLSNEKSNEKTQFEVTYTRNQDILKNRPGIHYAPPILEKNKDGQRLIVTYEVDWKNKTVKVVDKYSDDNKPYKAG
T1 sequence 2: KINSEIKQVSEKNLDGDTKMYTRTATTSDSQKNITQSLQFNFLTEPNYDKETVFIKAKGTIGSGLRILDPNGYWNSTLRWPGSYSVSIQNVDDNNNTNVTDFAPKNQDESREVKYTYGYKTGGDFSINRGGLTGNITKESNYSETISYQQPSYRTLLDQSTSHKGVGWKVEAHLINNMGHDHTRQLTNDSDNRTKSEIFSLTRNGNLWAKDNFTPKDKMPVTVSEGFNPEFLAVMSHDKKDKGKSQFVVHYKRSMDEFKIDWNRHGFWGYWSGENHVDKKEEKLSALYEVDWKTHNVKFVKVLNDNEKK
The experiment in a line: ELISA, biotinylated toxin on streptavidin plate. Background: ELISA stands for enzyme-linked immunosorbent assay.

B1: 0×1 linker variant of Construct 11 (bispecific antibody)
heavy: EVQLVETGGGLVKPGGSLRLSCSASRFSFRDYYMTWIRQAPGKGPEWVSHISGSGSTIYYADSVRGRFTISRDNAKSSLYLQMDSLQADDTAVYYCARGGRATSYYWVHWGPGTLVTVSSASTKGPSVFPLAPSSKSTSGGTAALGCLVKDYFPEPVTVSWNSGALTSGVHTFPAVLQSSGLYSLSSVVTVPSSSLGTQTYICNVNHKPSNTKVDKKVEPKSCDKTHTCPPCPAPPVAGPDVFLFPPKPKDTLMISRTPEVTCVVVDVSHEDPEVKFNWYVDGVEVHNAKTKPREEQYNSTYRVVSVLTVLHQDWLNGKEYKCKVSNAALPAPIAKTISKAKGQPREPQVYTLPPSRDELTKNQVSLTCLVKGFYPSDIAVEWESNGQPENNYKTTPPVLDSDGSFFLYSKLTVDKSRWQQGNVFSCSVMHEALHNRFTQKSLSLSPGKMLPAPKNLVVSRVTEDSARLSWTAPDAAFDSFHIEYAEPWVWGEAIVLTVPGSERSYDLTGLKPGTEYVVFIGGVKGGHNSTPLSAIFTTGGGGSMLPAPKNLVVSRVTEDSARLSWTAPDAAFDSFWITYEEKFYRGEAIVLTVPGSERSYDLTGLKPGTEYKVWIVGVKGGQGSWPLSAIFTT
light: EIVLTQSPATLSLSPGERATLSCRASQSVSGYLGWYQQKPGQAPRLLIYGASSRATGIPDRFSGSGSGTDFTLTISRLEPEDFAVYYCQQYGSSPLTFGGGTKLEIKRTVAAPSVFIFPPSDEQLKSGTASVVCLLNNFYPREAKVQWKVDNALQSGNSQESVTEQDSKDSTYSLSSTLTLSKADYEKHKVYACEVTHQGLSSPVTKSFNRGEC
Turning to B1, the binding result was “binds”.

B2: 0×4 linker variant of Construct 11 (bispecific antibody)
heavy: EVQLVETGGGLVKPGGSLRLSCSASRFSFRDYYMTWIRQAPGKGPEWVSHISGSGSTIYYADSVRGRFTISRDNAKSSLYLQMDSLQADDTAVYYCARGGRATSYYWVHWGPGTLVTVSSASTKGPSVFPLAPSSKSTSGGTAALGCLVKDYFPEPVTVSWNSGALTSGVHTFPAVLQSSGLYSLSSVVTVPSSSLGTQTYICNVNHKPSNTKVDKKVEPKSCDKTHTCPPCPAPPVAGPDVFLFPPKPKDTLMISRTPEVTCVVVDVSHEDPEVKFNWYVDGVEVHNAKTKPREEQYNSTYRVVSVLTVLHQDWLNGKEYKCKVSNAALPAPIAKTISKAKGQPREPQVYTLPPSRDELTKNQVSLTCLVKGFYPSDIAVEWESNGQPENNYKTTPPVLDSDGSFFLYSKLTVDKSRWQQGNVFSCSVMHEALHNRFTQKSLSLSPGKMLPAPKNLVVSRVTEDSARLSWTAPDAAFDSFHIEYAEPWVWGEAIVLTVPGSERSYDLTGLKPGTEYVVFIGGVKGGHNSTPLSAIFTTGGGGSGGGGSGGGGSGGGGSMLPAPKNLVVSRVTEDSARLSWTAPDAAFDSFWITYEEKFYRGEAIVLTVPGSERSYDLTGLKPGTEYKVWIVGVKGGQGSWPLSAIFTT
light: EIVLTQSPATLSLSPGERATLSCRASQSVSGYLGWYQQKPGQAPRLLIYGASSRATGIPDRFSGSGSGTDFTLTISRLEPEDFAVYYCQQYGSSPLTFGGGTKLEIKRTVAAPSVFIFPPSDEQLKSGTASVVCLLNNFYPREAKVQWKVDNALQSGNSQESVTEQDSKDSTYSLSSTLTLSKADYEKHKVYACEVTHQGLSSPVTKSFNRGEC
As to B2, the binding result was “binds”.

B3: 1×4 linker variant of Construct 11 (bispecific antibody)
heavy: EVQLVETGGGLVKPGGSLRLSCSASRFSFRDYYMTWIRQAPGKGPEWVSHISGSGSTIYYADSVRGRFTISRDNAKSSLYLQMDSLQADDTAVYYCARGGRATSYYWVHWGPGTLVTVSSASTKGPSVFPLAPSSKSTSGGTAALGCLVKDYFPEPVTVSWNSGALTSGVHTFPAVLQSSGLYSLSSVVTVPSSSLGTQTYICNVNHKPSNTKVDKKVEPKSCDKTHTCPPCPAPPVAGPDVFLFPPKPKDTLMISRTPEVTCVVVDVSHEDPEVKFNWYVDGVEVHNAKTKPREEQYNSTYRVVSVLTVLHQDWLNGKEYKCKVSNAALPAPIAKTISKAKGQPREPQVYTLPPSRDELTKNQVSLTCLVKGFYPSDIAVEWESNGQPENNYKTTPPVLDSDGSFFLYSKLTVDKSRWQQGNVFSCSVMHEALHNRFTQKSLSLSPGKGGGGSMLPAPKNLVVSRVTEDSARLSWTAPDAAFDSFHIEYAEPWVWGEAIVLTVPGSERSYDLTGLKPGTEYVVFIGGVKGGHNSTPLSAIFTTGGGGSGGGGSGGGGSGGGGSMLPAPKNLVVSRVTEDSARLSWTAPDAAFDSFWITYEEKFYRGEAIVLTVPGSERSYDLTGLKPGTEYKVWIVGVKGGQGSWPLSAIFTT
light: EIVLTQSPATLSLSPGERATLSCRASQSVSGYLGWYQQKPGQAPRLLIYGASSRATGIPDRFSGSGSGTDFTLTISRLEPEDFAVYYCQQYGSSPLTFGGGTKLEIKRTVAAPSVFIFPPSDEQLKSGTASVVCLLNNFYPREAKVQWKVDNALQSGNSQESVTEQDSKDSTYSLSSTLTLSKADYEKHKVYACEVTHQGLSSPVTKSFNRGEC
B3: the binding result is given as “binds”.

B4: 0×3 linker variant of Construct 11 (bispecific antibody)
heavy: EVQLVETGGGLVKPGGSLRLSCSASRFSFRDYYMTWIRQAPGKGPEWVSHISGSGSTIYYADSVRGRFTISRDNAKSSLYLQMDSLQADDTAVYYCARGGRATSYYWVHWGPGTLVTVSSASTKGPSVFPLAPSSKSTSGGTAALGCLVKDYFPEPVTVSWNSGALTSGVHTFPAVLQSSGLYSLSSVVTVPSSSLGTQTYICNVNHKPSNTKVDKKVEPKSCDKTHTCPPCPAPPVAGPDVFLFPPKPKDTLMISRTPEVTCVVVDVSHEDPEVKFNWYVDGVEVHNAKTKPREEQYNSTYRVVSVLTVLHQDWLNGKEYKCKVSNAALPAPIAKTISKAKGQPREPQVYTLPPSRDELTKNQVSLTCLVKGFYPSDIAVEWESNGQPENNYKTTPPVLDSDGSFFLYSKLTVDKSRWQQGNVFSCSVMHEALHNRFTQKSLSLSPGKMLPAPKNLVVSRVTEDSARLSWTAPDAAFDSFHIEYAEPWVWGEAIVLTVPGSERSYDLTGLKPGTEYVVFIGGVKGGHNSTPLSAIFTTGGGGSGGGGSGGGGSMLPAPKNLVVSRVTEDSARLSWTAPDAAFDSFWITYEEKFYRGEAIVLTVPGSERSYDLTGLKPGTEYKVWIVGVKGGQGSWPLSAIFTT
light: EIVLTQSPATLSLSPGERATLSCRASQSVSGYLGWYQQKPGQAPRLLIYGASSRATGIPDRFSGSGSGTDFTLTISRLEPEDFAVYYCQQYGSSPLTFGGGTKLEIKRTVAAPSVFIFPPSDEQLKSGTASVVCLLNNFYPREAKVQWKVDNALQSGNSQESVTEQDSKDSTYSLSSTLTLSKADYEKHKVYACEVTHQGLSSPVTKSFNRGEC
Consider B4, for which the binding result is on record as “binds”.

B5: 0×2 linker variant of Construct 11 (bispecific antibody)
heavy: EVQLVETGGGLVKPGGSLRLSCSASRFSFRDYYMTWIRQAPGKGPEWVSHISGSGSTIYYADSVRGRFTISRDNAKSSLYLQMDSLQADDTAVYYCARGGRATSYYWVHWGPGTLVTVSSASTKGPSVFPLAPSSKSTSGGTAALGCLVKDYFPEPVTVSWNSGALTSGVHTFPAVLQSSGLYSLSSVVTVPSSSLGTQTYICNVNHKPSNTKVDKKVEPKSCDKTHTCPPCPAPPVAGPDVFLFPPKPKDTLMISRTPEVTCVVVDVSHEDPEVKFNWYVDGVEVHNAKTKPREEQYNSTYRVVSVLTVLHQDWLNGKEYKCKVSNAALPAPIAKTISKAKGQPREPQVYTLPPSRDELTKNQVSLTCLVKGFYPSDIAVEWESNGQPENNYKTTPPVLDSDGSFFLYSKLTVDKSRWQQGNVFSCSVMHEALHNRFTQKSLSLSPGKMLPAPKNLVVSRVTEDSARLSWTAPDAAFDSFHIEYAEPWVWGEAIVLTVPGSERSYDLTGLKPGTEYVVFIGGVKGGHNSTPLSAIFTTGGGGSGGGGSMLPAPKNLVVSRVTEDSARLSWTAPDAAFDSFWITYEEKFYRGEAIVLTVPGSERSYDLTGLKPGTEYKVWIVGVKGGQGSWPLSAIFTT
light: EIVLTQSPATLSLSPGERATLSCRASQSVSGYLGWYQQKPGQAPRLLIYGASSRATGIPDRFSGSGSGTDFTLTISRLEPEDFAVYYCQQYGSSPLTFGGGTKLEIKRTVAAPSVFIFPPSDEQLKSGTASVVCLLNNFYPREAKVQWKVDNALQSGNSQESVTEQDSKDSTYSLSSTLTLSKADYEKHKVYACEVTHQGLSSPVTKSFNRGEC
B5: the binding result is “binds”.

B6: 3×2 linker variant of Construct 11 (bispecific antibody)
heavy: EVQLVETGGGLVKPGGSLRLSCSASRFSFRDYYMTWIRQAPGKGPEWVSHISGSGSTIYYADSVRGRFTISRDNAKSSLYLQMDSLQADDTAVYYCARGGRATSYYWVHWGPGTLVTVSSASTKGPSVFPLAPSSKSTSGGTAALGCLVKDYFPEPVTVSWNSGALTSGVHTFPAVLQSSGLYSLSSVVTVPSSSLGTQTYICNVNHKPSNTKVDKKVEPKSCDKTHTCPPCPAPPVAGPDVFLFPPKPKDTLMISRTPEVTCVVVDVSHEDPEVKFNWYVDGVEVHNAKTKPREEQYNSTYRVVSVLTVLHQDWLNGKEYKCKVSNAALPAPIAKTISKAKGQPREPQVYTLPPSRDELTKNQVSLTCLVKGFYPSDIAVEWESNGQPENNYKTTPPVLDSDGSFFLYSKLTVDKSRWQQGNVFSCSVMHEALHNRFTQKSLSLSPGKGGGGSGGGGSGGGGSMLPAPKNLVVSRVTEDSARLSWTAPDAAFDSFHIEYAEPWVWGEAIVLTVPGSERSYDLTGLKPGTEYVVFIGGVKGGHNSTPLSAIFTTGGGGSGGGGSMLPAPKNLVVSRVTEDSARLSWTAPDAAFDSFWITYEEKFYRGEAIVLTVPGSERSYDLTGLKPGTEYKVWIVGVKGGQGSWPLSAIFTT
light: EIVLTQSPATLSLSPGERATLSCRASQSVSGYLGWYQQKPGQAPRLLIYGASSRATGIPDRFSGSGSGTDFTLTISRLEPEDFAVYYCQQYGSSPLTFGGGTKLEIKRTVAAPSVFIFPPSDEQLKSGTASVVCLLNNFYPREAKVQWKVDNALQSGNSQESVTEQDSKDSTYSLSSTLTLSKADYEKHKVYACEVTHQGLSSPVTKSFNRGEC
B6: the binding result is “binds”.
